Experimental data published in US20160230205A1 (R P SCHERER TECHNOLOGIES, published 2016).

T1: Streptomyces coelicolor formylglycine-generating enzyme (Sc-FGE), wild-type, with N-terminal hexahistidine … (Streptomyces coelicolor, UniProt Q9F3C7 1-314)
T1 construct: Made in E. coli BL21(DE3); also called S. coelicolor FGE; not shown: N-terminal hexahistidine tag and TEV protease cleavage site from the pET151-D/TOPO vector
T1 sequence (looked up): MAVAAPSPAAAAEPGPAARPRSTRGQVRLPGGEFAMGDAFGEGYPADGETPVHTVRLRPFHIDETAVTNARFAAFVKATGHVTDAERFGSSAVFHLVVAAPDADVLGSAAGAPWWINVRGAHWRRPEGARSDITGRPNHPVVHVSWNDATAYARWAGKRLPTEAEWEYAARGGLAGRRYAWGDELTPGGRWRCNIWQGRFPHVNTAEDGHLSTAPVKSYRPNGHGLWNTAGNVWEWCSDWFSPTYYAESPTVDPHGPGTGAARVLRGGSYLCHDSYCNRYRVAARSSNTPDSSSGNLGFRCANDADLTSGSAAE

T2: 14 amino acid FGE substrate peptide ALCTPSRGSLFTGR
T2 chain: ALCTPSRGSLFTGR


Experiments:
[1] = target: T1, Streptomyces coelicolor …; assay: Michaelis-Menten kinetics from discontinuous RP-HPLC activity assay
[2] = target: T2, 14 amino acid FGE substrate peptide …

Row | Binder | binding result [1] | KM [2]
1 | ALCTPSRGSLFTGR (Used as substrate for both the Sc and Hs forms of the enzyme; also called Csub) [14 amino acid FGE substrate peptide ALCTPSRGSLFTGR] | binds | –
2 | Catalytic core of H. sapiens formylglycine-generating enzyme with TEV protease site and C-terminal His6 tag (Hs-cFGE) (protein) DRSLEANAPGPVPGERQLAHSKMVPIPAGVFTMGTDDPQIKQDGEAPARRVTIDAFYMDAYEVSNTEFEKFVNSTGYLTEVAAAPWWLPVKGANWRHPEGPDSTILHRPDHPVLHVSWNDAVAYCTWAGKRLPTEAEWEYSCRGGLHNRLFPWGNKLQPKGQHYANIWQGEFPVTNTGEDGFQGTAPVDAFPPNGYGLYNIVGNAWEWTSDWWTVHHSVEETLNPKGPPSGKDRVKKGGSYMCHRSYCYRYRCAARSQNTPDSSASNLGFRCAADRLPTMDKGENLYFQGHHHHHH | – | KM=0.34 µM
3 | Streptomyces coelicolor formylglycine-generating enzyme (Sc-FGE), wild-type, with N-terminal hexahistidine tag and TEV protease cleavage site, activated with … (protein) MAVAAPSPAAAAEPGPAARPRSTRGQVRLPGGEFAMGDAFGEGYPADGETPVHTVRLRPFHIDETAVTNARFAAFVKATGHVTDAERFGSSAVFHLVVAAPDADVLGSAAGAPWWINVRGAHWRRPEGARSDITGRPNHPVVHVSWNDATAYARWAGKRLPTEAEWEYAARGGLAGRRYAWGDELTPGGRWRCNIWQGRFPHVNTAEDGHLSTAPVKSYRPNGHGLWNTAGNVWEWCSDWFSPTYYAESPTVDPHGPGTGAARVLRGGSYLCHDSYCNRYRVAARSSNTPDSSSGNLGFRCANDADLTSGSAAE | – | KM=96 µM
